Laboratory results reported in article PMC7954794, “Protein context shapes the specificity of SH3 domain-mediated interactions in vivo” (Nature Communications, 2021).

System: PPIs identified as affected by the SH3 domain deletions
Test: Liquid DHFR-PCA low-throughput validation of PPIs affected by SH3 deletion (Fig. S1D-E)
Format: cell-based, Saccharomyces cerevisiae
Settings: label = prey, liquid DHFR-PCA, prey _1 = lost, _2 = gained in screen
Method in brief: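 Growth at 30 °C was tracked by OD each 15 min over 72 h in agar-free PCA selection medium, starting at 0.1 OD. Cells were diploids selected after mating, first cultured 48 h with NAT and HPH in synthetic complete MSG medium, pH 6.0.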

B1: YGR281W_2 (protein, UniProt P53049 1-1477, looked up)
Oligomycin resistance …: MTITVGDAVSETELENKSQNVVLSPKASASSDISTDVDKDTSSSWDDKSLLPTGEYIVDRNKPQTYLNSDDIEKVTESDIFPQKRLFSFLHSKKIPEVPQTDDERKIYPLFHTNIISNMFFWWVLPILRVGYKRTIQPNDLFKMDPRMSIETLYDDFEKNMIYYFEKTRKKYRKRHPEATEEEVMENAKLPKHTVLRALLFTFKKQYFMSIVFAILANCTSGFNPMITKRLIEFVEEKAIFHSMHVNKGIGYAIGACLMMFVNGLTFNHFFHTSQLTGVQAKSILTKAAMKKMFNASNYARHCFPNGKVTSFVTTDLARIEFALSFQPFLAGFPAILAICIVLLIVNLGPIALVGIGIFFGGFFISLFAFKLILGFRIAANIFTDARVTMMREVLNNIKMIKYYTWEDAYEKNIQDIRTKEISKVRKMQLSRNFLIAMAMSLPSIASLVTFLAMYKVNKGGRQPGNIFASLSLFQVLSLQMFFLPIAIGTGIDMIIGLGRLQSLLEAPEDDPNQMIEMKPSPGFDPKLALKMTHCSFEWEDYELNDAIEEAKGEAKDEGKKNKKKRKDTWGKPSASTNKAKRLDNMLKDRDGPEDLEKTSFRGFKDLNFDIKKGEFIMITGPIGTGKSSLLNAMAGSMRKTDGKVEVNGDLLMCGYPWIQNASVRDNIIFGSPFNKEKYDEVVRVCSLKADLDILPAGDMTEIGERGITLSGGQKARINLARSVYKKKDIYLFDDVLSAVDSRVGKHIMDECLTGMLANKTRILATHQLSLIERASRVIVLGTDGQVDIGTVDELKARNQTLINLLQFSSQNSEKEDEEQEAVVAGELGQLKYESEVKELTELKKKATEMSQTANSGKIVADGHTSSKEERAVNSISLKIYREYIKAAVGKWGFIALPLYAILVVGTTFCSLFSSVWLSYWTENKFKNRPPSFYMGLYSFFVFAAFIFMNGQFTILCAMGIMASKWLNLRAVKRILHTPMSYIDTTPLGRILNRFTKDTDSLDNELTESLRLMTSQFANIVGVCVMCIVYLPWFAIAIPFLLVIFVLIADHYQSSGREIKRLEAVQRSFVYNNLNEVLGGMDTIKAYRSQERFLAKSDFLINKMNEAGYLVVVLQRWVGIFLDMVAIAFALIITLLCVTRAFPISAASVGVLLTYVLQLPGLLNTILRAMTQTENDMNSAERLVTYATELPLEASYRKPEMTPPESWPSMGEIIFENVDFAYRPGLPIVLKNLNLNIKSGEKIGICGRTGAGKSTIMSALYRLNELTAGKILIDNVDISQLGLFDLRRKLAIIPQDPVLFRGTIRKNLDPFNERTDDELWDALVRGGAIAKDDLPEVKLQKPDENGTHGKMHKFHLDQAVEEEGSNFSLGERQLLALTRALVRQSKILILDEATSSVDYETDGKIQTRIVEEFGDCTILCIAHRLKTIVNYDRILVLEKGEVAEFDTPWTLFSQEDSIFRSMCSRSGIVENDFENRS
- Ratio (Deletedscore / WTscore) (bait BOI1): 0.9762
- Ratio (Deletedscore / WTscore) (bait BZZ1-2): 1.357
- Ratio (Deletedscore / WTscore) (bait LSB3): 1.455

B2: YKR048C_2 (protein, UniProt P25293 1-417, looked up)
Nucleosome assembly protein: MSDPIRTKPKSSMQIDNAPTPHNTPASVLNPSYLKNGNPVRAQAQEQDDKIGTINEEDILANQPLLLQSIQDRLGSLVGQDSGYVGGLPKNVKEKLLSLKTLQSELFEVEKEFQVEMFELENKFLQKYKPIWEQRSRIISGQEQPKPEQIAKGQEIVESLNETELLVDEEEKAQNDSEEEQVKGIPSFWLTALENLPIVCDTITDRDAEVLEYLQDIGLEYLTDGRPGFKLLFRFDSSANPFFTNDILCKTYFYQKELGYSGDFIYDHAEGCEISWKDNAHNVTVDLEMRKQRNKTTKQVRTIEKITPIESFFNFFDPPKIQNEDQDEELEEDLEERLALDYSIGEQLKDKLIPRAVDWFTGAALEFEFEEDEEEADEDEDEEEDDDHGLEDDDGESAEEQDDFAGRPEQAPECKQS
- Ratio (Deletedscore / WTscore) (bait BOI2): 1.065
- Ratio (Deletedscore / WTscore) (bait LSB3): 1.174

B3: YKL051W_2 (protein, UniProt P35735 1-353, looked up)
Protein SFK1: MIQFKSPGNWLFIVPWIAFIPWYGMLIAMLICWASQGHPIYWFMHSEQFPVYISDIGATNLRPLFISCAGWQGLGYVITVALEFFQRSGYLPFQLKKKDPSISDSTSYAEKLHSGKYLMPPYYTKDERNLIFAAFVLGSIGELALLFSSIFSTALYHRVHIAMVSVFVVFMFLSTCCLIAEYFLMGRHYASVHPLASPHFNPQSSEKSFNQDYNTVDELPWYKWKGHVWNKFTISATLKVIWLTLAVVWAICFGAINDRSKSACFEWLLAFWFGIIFMILSADFYLGGRYRQSRYFNHVESFSGYYKYDKALGLYHSEDVLPSDDNAGVIATETASSNIYNNSSSNESIQVVV
- Ratio (Deletedscore / WTscore) (bait BOI1): 0.8707
- Ratio (Deletedscore / WTscore) (bait BZZ1-2): 1.125
- Ratio (Deletedscore / WTscore) (bait LSB3): 1.525

B4: YAR042W_2 (protein, UniProt P35845 1-1188, looked up)
Oxysterol-binding protein …: MEQPDLSSVAISKPLLKLKLLDALRQGSFPNLQDLLKKQFQPLDDPNVQQVLHLMLHYAVQVAPMAVIKEIVHHWVSTTNTTFLNIHLDLNERDSNGNTPLHIAAYQSRGDIVAFLLDQPTINDCVLNNSHLQAIEMCKNLNIAQMMQVKRSTYVAETAQEFRTAFNNRDFGHLESILSSPRNAELLDINGMDPETGDTVLHEFVKKRDVIMCRWLLEHGADPFKRDRKGKLPIELVRKVNENDTATNTKIAIDIELKKLLERATREQSVIDVTNNNLHEAPTYKGYLKKWTNFAQGYKLRWFILSSDGKLSYYIDQADTKNACRGSLNMSSCSLHLDSSEKLKFEIIGGNNGVIRWHLKGNHPIETNRWVWAIQGAIRYAKDREILLHNGPYSPSLALSHGLSSKVSNKENLHATSKRLTKSPHLSKSTLTQNDHDNDDDSTNNNNNKSNNDYDDNNNNNNNDDDDYDDDDESRPLIEPLPLISSRSQSLSEITPGPHSRKSTVSSTRAADIPSDDEGYSEDDSDDDGNSSYTMENGGENDGDEDLNAIYGPYIQKLHMLQRSISIELASLNELLQDKQQHDEYWNTVNTSIETVSEFFDKLNRLTSQREKRMIAQMTKQRDVNNVWIQSVKDLEMELVDKDEKLVALDKERKNLKKMLQKKLNNQPQVETEANEESDDANSMIKGSQESTNTLEEIVKFIEATKESDEDSDADEFFDAEEAASDKKANDSEDLTTNKETPANAKPQEEAPEDESLIVISSPQVEKKNQLLKEGSFVGYEDPVRTKLALDEDNRPKIGLWSVLKSMVGQDLTKLTLPVSFNEPTSLLQRVSEDIEYSHILDQAATFEDSSLRMLYVAAFTASMYASTTNRVSKPFNPLLGETFEYARTDGQYRFFTEQVSHHPPISATWTESPKWDFYGECNVDSSFNGRTFAVQHLGLWYITIRPDHNISVPEETYSWKKPNNTVIGILMGKPQVDNSGDVKVTNHTTGDYCMLHYKAHGWTSAGAYEVRGEVFNKDDKKLWVLGGHWNDSIYGKKVTARGGELTLDRIKTANSATGGPKLDGSKFLIWKANERPSVPFNLTSFALTLNALPPHLIPYLAPTDSRLRPDQRAMENGEYDKAAAEKHRVEVKQRAAKKEREQKGEEYRPKWFVQEEHPVTKSLYWKFNGEYWNKRKNHDFKDCADIF
- Ratio (Deletedscore / WTscore) (bait ABP1): 1.203

B5: YCR002C_2 (protein, UniProt P25342 1-322, looked up)
Cell division control protein …: MDPLSSVQPASYVGFDTITNQIEHRLLKKGFQFNIMVVGQSGLGKSTLINTLFASHLIDSATGDDISALPVTKTTEMKISTHTLVEDRVRLNINVIDTPGFGDFIDNSKAWEPIVKYIKEQHSQYLRKELTAQRERFITDTRVHAILYFLQPNGKELSRLDVEALKRLTEIANVIPVIGKSDTLTLDERTEFRELIQNEFEKYNFKIYPYDSEELTDEELELNRSVRSIIPFAVVGSENEIEINGETFRGRKTRWSAINVEDINQCDFVYLREFLIRTHLQDLIETTSYIHYEGFRARQLIALKENANSRSSAHMSSNAIQR
- Ratio (Deletedscore / WTscore) (bait BZZ1-2): 1.169
- Ratio (Deletedscore / WTscore) (bait HOF1): 0.2463
- Ratio (Deletedscore / WTscore) (bait LSB3): 1.096

B6: YBL039C_2 (protein, UniProt P28274 1-579, looked up)
CTP synthase 1: MKYVVVSGGVISGIGKGVLASSTGMLMKTLGLKVTSIKIDPYMNIDAGTMSPLEHGECFVLDDGGETDLDLGNYERYLGVTLTKDHNITTGKIYSHVIAKERKGDYLGKTVQIVPHLTNAIQDWIERVAKIPVDDTGMEPDVCIIELGGTVGDIESAPFVEALRQFQFKVGKENFALIHVSLVPVIHGEQKTKPTQAAIKGLRSLGLVPDMIACRCSETLDKPTIDKIAMFCHVGPEQVVNVHDVNSTYHVPLLLLEQKMIDYLHARLKLDEISLTEEEKQRGLELLSKWKATTGNFDESMETVKIALVGKYTNLKDSYLSVIKALEHSSMKCRRKLDIKWVEATDLEPEAQESNKTKFHEAWNMVSTADGILIPGGFGVRGTEGMVLAARWARENHIPFLGVCLGLQIATIEFTRSVLGRKDSHSAEFYPDIDEKNHVVVFMPEIDKETMGGSMRLGLRPTFFQNETEWSQIKKLYGDVSEVHERHRHRYEINPKMVDELENNGLIFVGKDDTGKRCEILELKNHPYYIATQYHPEYTSKVLDPSKPFLGLVAASAGILQDVIEGKYDLEAGENKFNF
- Ratio (Deletedscore / WTscore) (bait BZZ1-2): 1.633
- Ratio (Deletedscore / WTscore) (bait HSE1): 1.248
- Ratio (Deletedscore / WTscore) (bait LSB3): 1.147

B7: YDR379W_2 (protein, UniProt Q06407 1-1009, looked up)
Rho-type GTPase-activating …: MSADPINDQSSLCVRCNKSIASSQVYELESKKWHDQCFTCYKCDKKLNADSDFLVLDIGTLICYDCSDKCTNCGDKIDDTAIILPSSNEAYCSNCFRCCRCSNRIKNLKYAKTKRGLCCMDCHEKLLRKKQLLLENQTKNSSKEDFPIKLPERSVKRPLSPTRINGKSDVSTNNTAISKNLVSSNEDQQLTPQVLVSQERDESSLNDNNDNDNSKDREETSSHARTVSIDDILNSTLEHDSNSIEEQSLVDNEDYINKMGEDVTYRLLKPQRANRDSIVVKDPRIPNSNSNANRFFSIYDKEETDKDDTDNKENEIIVNTPRNSTDKITSPLNSPMAVQMNEEVEPPHGLALTLSEATKENNKSSQGIQTSTSKSMNHVSPITRTDTVEMKTSTSSSTLRLSDNGSFSRPQTADNLLPHKKVAPSPNKKLSRSFSLKSKNFVHNLKSKTSEMLDPKHPHHSTSIQESDTHSGWGVSSTHTNIRKSKAKKNPVSRGQSDSTIYNTLPQHGNFTVPEFNHKKAQSSLGSISKKQNSNDTATNRRINGSFTSSSSGHHIAMFRTPPLESGPLFKRPSLSSESAHHRSSSLQTSRSTNALLEDDSTKVDATDESATSLEKDFYFTELTLRKLKLDVRELEGTKKKLLQDVENLRLAKERLLNDVDNLTREKDKQSASSRESLEQKENIATSITVKSPSSNSDRKGSISNASPKPRFWKIFSSAKDHQVGDLESQQRSPNSSSGGTTNIAQKEISSPKLIRVHDELPSPGKVPLSPSPKRLDYTPDGSHLYGSSLQARCAYEKSTVPIIIRCCIDRIEKDDIGLNMEGLYRKSGSQTLVEEIENEFAQNNSLHSDTLSPKLNALLNQDIHAVASVLKRYLRKLPDPVLSFSIYDALIDLVRNNQLIERLPLNNDKFLDSPQKVTIYEMVLKSLLEIFKILPVEHQEVLKVLAAHIGKVRRCSERNLMNLHNLSLVFAPSLIHDFDGEKDIVDMKERNYIVEFILGNYRDIFKQA
- Ratio (Deletedscore / WTscore) (bait BOI1): 0.9152
